Two molecules from paper doi:10.1101/2022.02.18.481027, “Structural insights into the assembly and activation of IL-27 signalling complex” (bioRxiv, 2022) can be followed below.

Assay [1] has as its target T1, p28 (IL-27p28), recombinant, alone (murine, UniProt Q8K3I6 29-234).
T1 construct: IL-27p28 (p28) without EBI3; the construct is not described; The methods of expression name no p28 construct; source: recombinantly produced
T1 sequence (looked up): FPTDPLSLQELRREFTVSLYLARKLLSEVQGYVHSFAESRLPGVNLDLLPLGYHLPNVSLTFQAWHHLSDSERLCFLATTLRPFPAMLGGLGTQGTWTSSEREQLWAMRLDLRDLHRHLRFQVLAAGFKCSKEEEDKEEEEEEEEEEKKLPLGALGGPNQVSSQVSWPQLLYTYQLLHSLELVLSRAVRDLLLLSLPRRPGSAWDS
The assay is described as follows: SPR; biotinylated IL-27Rα or GP130 immobilised on a streptavidin chip (Series S Sensor SA), p28 flowed over; equilibrium analysis; 10 mM HEPES, 150 mM NaCl, 0.05% TWEEN-20, 0.5% BSA; Biacore T100. The conditions noted are these: both partners purified. In general terms: SPR reads the build-up and loss of mass on a sensor chip optically.

In assay [2] the target is T2, Murine IL-27Rα ectodomain (amino acids 28-224), N-terminally biotinylated (murine, UniProt O70394 28-224, N-terminal biotin (EZ-Link Sulfo-NHS-SS-Biotin, at pH 6.5)).
T2 chain: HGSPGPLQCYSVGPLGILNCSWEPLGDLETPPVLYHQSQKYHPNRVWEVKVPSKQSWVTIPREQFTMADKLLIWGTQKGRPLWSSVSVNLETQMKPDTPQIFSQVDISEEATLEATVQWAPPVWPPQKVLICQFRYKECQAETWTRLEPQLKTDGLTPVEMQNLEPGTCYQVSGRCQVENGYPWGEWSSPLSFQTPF
Briefly: SPR.

Assay [3] concerns the target T3, Murine GP130 ectodomain with C-terminal biotin acceptor peptide, biotinylated (murine, UniProt Q00560 23-319, biotin on the biotin acceptor peptide (BirA ligase)).
T3 chain: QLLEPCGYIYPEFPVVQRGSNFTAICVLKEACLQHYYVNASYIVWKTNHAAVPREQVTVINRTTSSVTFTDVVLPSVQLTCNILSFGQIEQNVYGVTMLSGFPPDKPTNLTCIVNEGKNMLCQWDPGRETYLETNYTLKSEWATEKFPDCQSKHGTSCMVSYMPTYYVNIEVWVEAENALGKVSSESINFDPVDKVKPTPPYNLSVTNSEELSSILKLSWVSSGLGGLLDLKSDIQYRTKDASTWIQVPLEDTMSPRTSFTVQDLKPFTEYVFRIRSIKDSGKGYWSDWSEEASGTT
The assay is described as follows: SPR.

B1: Murine IL-27Rα ectodomain (amino acids 28-224), N-terminally biotinylated (receptor, UniProt O70394 28-224, looked up)
chain: HGSPGPLQCYSVGPLGILNCSWEPLGDLETPPVLYHQSQKYHPNRVWEVKVPSKQSWVTIPREQFTMADKLLIWGTQKGRPLWSSVSVNLETQMKPDTPQIFSQVDISEEATLEATVQWAPPVWPPQKVLICQFRYKECQAETWTRLEPQLKTDGLTPVEMQNLEPGTCYQVSGRCQVENGYPWGEWSSPLSFQTPF
modifications: N-terminal biotin (EZ-Link Sulfo-NHS-SS-Biotin, at pH 6.5)
notes: murine IL-27Rα, amino acids 28-224; also called biotinylated IL-27Rα; source: baculovirus, Trichoplusia ni (High Five) cells, secreted, purified (Ni-NTA, SEC), biotinylated in vitro
With B1, the Kd in assay [1] worked out at 2.8 µM.

B2: Murine IL-27, linker-connected single-chain variant (p28+EBI3) (ligand)
chain 1: YTETALVALSQPRVQCHASRYPVAVDCSWTPLQAPNSTRSTSFIATYRLGVATQQQSQPCLQRSPQASRCTIPDVHLFSTVPYMLNVTAVHPGGASSSLLAFVAERIIKPDPPEGVRLRTAGQRLQVLWHPPASWPFPDIFSLKYRLRYRRRGASHFRQVGPIEATTFTLRNSKPHAKYCIQVSAQDLTDYGKPSDWSLPGQVESAPHKP
chain 2: FPTDPLSLQELRREFTVSLYLARKLLSEVQGYVHSFAESRLPGVNLDLLPLGYHLPNVSLTFQAWHHLSDSERLCFLATTLRPFPAMLGGLGTQGTWTSSEREQLWAMRLDLRDLHRHLRFQVLAAGFKCSKEEEDKEEEEEEEEEEKKLPLGALGGPNQVSSQVSWPQLLYTYQLLHSLELVLSRAVRDLLLLSLPRRPGSAWDS
For B2, the koff in assay [2] amounted to 0.001 s⁻¹; in assay [3], 0.021 s⁻¹.

As a reminder, the Kd is the concentration at which binding is half-saturated. The koff is the rate constant with which the complex falls apart. Lower therefore signals slow dissociation.
